Data taken from the supplement of paper PMC7125110.
± gives the standard error. Variants at the floor of the assay were thinned out.

B1: glmS ribozyme (parent)
chain: AUAAAAGCGCCAGAACUACAGAAAUGUAGUUGACGAGGAGGAGGUUUAUCGAAUUUUCGGCGGAUGCCUCCAAA

Key:
Conditions in all cases: with glucosamine-6-phosphate
glucosamine-6-phosphate [1] = variants of: B1; test: self-cleavage kobs at 160 uM GlcN6P; higher = faster cleavage; RNA array
Summary of the method: (§1)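 kcat and KM were obtained from weighted Michaelis–Menten fits across concentrations of kobs values. Those came from one- or two-exponential decay fits to per-tile medians normalised to baseline and to non-cleaving reference variants. The variants were barcoded ribozymes transcribed in situ by E. coli RNA polymerase on sequenced MiSeq chips and tracked through a hybridised Cy3 probe at 37 °C, with 40 μM to 10 mM glucosamine-6-phosphate in HEPES/KCl/Mg(OAc)2 buffer flowed in.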

glucosamine-6-phosphate [2] = variants of: B1; test: self-cleavage kobs at 640 uM GlcN6P; higher = faster cleavage; RNA array
Summary of the method: as §1

glucosamine-6-phosphate [3] = variants of: B1; test: self-cleavage kobs at 2500 uM GlcN6P; higher = faster cleavage; RNA array
Summary of the method: as §1

glucosamine-6-phosphate [4] = variants of: B1; test: self-cleavage kobs at 10000 uM GlcN6P; higher = faster cleavage; RNA array
Summary of the method: as §1

Variant	self-cleavage kobs at 160 uM GlcN6P (glucosamine-6-phosphate [1]) [s⁻¹]	self-cleavage kobs at 640 uM GlcN6P (glucosamine-6-phosphate [2]) [s⁻¹]	self-cleavage kobs at 2500 uM GlcN6P (glucosamine-6-phosphate [3]) [s⁻¹]	self-cleavage kobs at 10000 uM GlcN6P (glucosamine-6-phosphate [4]) [s⁻¹]
U31C A64U U65A	< 1e-05	< 1e-05	–	–
G9A U30C A42C C70U	< 1e-05	< 1e-05	–	–
C16G G51U U56C C70U	< 1e-05	< 1e-05	–	–
C10U A33U G62U C71A	< 1e-05	< 1e-05	< 1e-05	< 1e-05
G9C A33U A36G U45A A48C	< 1e-05	< 1e-05	< 1e-05	–
A33C G40C A52G G63A	< 1e-05	< 1e-05	< 1e-05	–
U31C G32C A33U C34A U49A	< 1e-05	–	< 1e-05	< 1e-05
G9A C67A C68G	< 1e-05	< 1e-05	< 1e-05	–
C10G A12G G38C	< 1e-05	< 1e-05	–	–
C10G A48G A64U U65A	< 1e-05	< 1e-05	< 1e-05	–
C8G A33C A48C U69G	< 1e-05	–	< 1e-05	–
G9U C34U U54A	< 1e-05	–	–	–
G13C A14G U55G G59U C68G	0.000122 ± 5.4e-05	0.000281 ± 7e-05	9.91e-05 ± 3.7e-05	–
C8G G40C U49C C61A	< 1e-05	< 1e-05	< 1e-05	–
A33G G37A A39C G63C C68G	< 1e-05	< 1e-05	–	–
A14G G32A G38U	< 1e-05	–	< 1e-05	< 1e-05
G9C A53G	< 1e-05	–	< 1e-05	< 1e-05
A12G G40A C61U	< 1e-05	–	–	–
A12C A64C C68A C71A	< 1e-05	< 1e-05	< 1e-05	–
G13U A42U	< 1e-05	< 1e-05	< 1e-05	–
G9A A12U A33C G62U	< 1e-05	–	–	–
C16G U46A C50A U69G	0.000562 ± 0.00018	–	–	–
C10U A15U	< 1e-05	–	–	< 1e-05
U31C G43U A48U U55A	< 1e-05	< 1e-05	< 1e-05	–
G13A A33C U55A	< 1e-05	< 1e-05	< 1e-05	–
